Common to all, as to format: cell-based
One assay deals with gene editing with Cas9. Briefly: Screen of 322 new SSAP proteins, gene editing activity with Cas9 (Table 5). More on the design: Cas9 with SSAP activity: scale not given here. In short, it runs like this: (§1)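 Editing screen of 322 newly identified, synthesized SSAPs, each co-used with Cas9 and with dCas9.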
The subject of assay [1] is gene editing with Cas9 and dCas9. The assay can be described thus: Screen of 322 new SSAP proteins, activity across all experiments (Cas9 and dCas9, Table 5). More on the design: scale not given here. In short, it runs like this:
as §1

The next assay concerns gene editing with dCas9. The assay can be described thus: Screen of 322 new SSAP proteins, gene editing activity with dCas9 (Table 5). More on the design: dCas9 with SSAP activity: scale not given here. In short, it runs like this: as §1

The values below come from patent US20250034594A1, “RNA-GUIDED GENOME RECOMBINEERING AT KILOBASE SCALE” (THE BOARD OF TRUSTEES OF THE LELAND STANFORD JUNIOR …, priority 2021, published 2025).

B1: SSAP_97: SEQ ID NO: 266; Gilliamella apicola (protein, listed as Gilliamella apicola)
chain: SEQNQPPIAKSDLEKTQLTNQDKKPATLAELVNSPKIKNQLAMALPKHMNPDRMARIVTTEIRKTPALADSNIQSFLGAVVQCSQLGLEPGGALGHAYLLPFGNGKAKDGKSNVQLIIGYRGMIDLARRSGQIISISARTVREGDDFHYEYGLNEDLKHTPKADESAPITYVYAVARLKDGGSQFEVMTFNQIESVRKQSKAGDKGPWITHWEEMAKKTVIRRLFKYLPVSIEIQQAVILDEKAEAGISQDNEMILDADFSVVEA
As for B1, in the assay with gene editing with Cas9, the “Cas9 with SSAP activity” value is reported as −5.948 and the “Cas9 with SSAP activity (normalized)” value is on record as −1.267. The “Activity across all experiments” value in assay [1] was −5.290. Further, in the assay on gene editing with dCas9, the “dCas9 with SSAP activity” value was −4.633 and the “dCas9 with SSAP activity (normalized)” value is −0.842.

B2: SSAP_275: SEQ ID NO: 444; Paenibacillus pinihumi (protein, listed as Paenibacillus pinihumi)
chain: ADANKLLVINEKLIKLIESKQDAMPKSFNKTRFIQNCMAVLQDTDEIDKCDATSVARTLLKGAFLGLDFMNKECYPIIYGGKCTFQTDYKGEIKLAQKYSVRPVLNIYAELVREGDFFLKEVKDGQRTIQHKPPEGFNDGKVIGAFAIVLYKDGGMDCESMSVAEIETTRKNYSKQANGPSWTKSPGEMQKKTVLRRLCKTIQLDFDTIEAKEAFEDGGDFDFKQDPKPQQQSPFDKNATVVDAEYEEVEEEDQSESAT
As for B2, in the assay on gene editing with Cas9, the “Cas9 with SSAP activity” value is listed as −1.206 and the “Cas9 with SSAP activity (normalized)” value is recorded as −0.494. For the same molecule, the “Activity across all experiments” value in assay [1] is recorded as −2.900. For the same molecule, in the assay on gene editing with dCas9, the “dCas9 with SSAP activity” value is recorded as −4.593 and the “dCas9 with SSAP activity (normalized)” value is recorded as −0.870.

B3: SSAP_82: SEQ ID NO: 251 (protein)
chain: ENEVMTQDQAYEVASPFGSSENFQKLFDIGKMFASSSLVPDRYRGKPMDCTIAVDMANRMGVSPMMVMQQLYVVKGNPQWSGQACMSLIRGSSEYKNVRPVYTGKKGEDSWGCYIEAEKKKTGEIVKGTEVTIAMAKAEGWYSKKDKYGNETSKWQTMPELMLAYRAAAFFARVYIPNALMGCAVEGEAEDIMKRAITAEDPFKEDAK
B3: in the assay with gene editing with Cas9, the “Cas9 with SSAP activity” value is reported as −4.284 and the “Cas9 with SSAP activity (normalized)” value is reported as −0.776. The “Activity across all experiments” value in assay [1] is −4.391. Further, in the assay on gene editing with dCas9, the “dCas9 with SSAP activity” value is listed as −4.498 and the “dCas9 with SSAP activity (normalized)” value is reported as −0.873.

B4: SSAP_232: SEQ ID NO: 401; Lactococcus fujiensis JCM 16395 (protein, listed as Lactococcus fujiensis)
chain: KSAPVQARFQEVLGKKSSGFVSSLLTVVNNNNLLKRATPDSIMTAAMKAATLDLPIEPSLGFAYIIPYGQEAQFQIGYKGLIQLALRSGQITGLNSGIVYKSQFISYDPLFEELEIDFMQPEDEVVGYFASMKLSNGFMKVVYWTKARVENHKKRFSKAGAKSPWATDFDAMAQKTVLKAMISKFAPLSQEMQIAVIADNESETLEPKDVTPEQPLISIDEPKENENSQSQISIPEDQAPQQENEEFVEELFPVGQA
On to B4, for which, in the assay with gene editing with Cas9, the “Cas9 with SSAP activity” value was −1.056 and the “Cas9 with SSAP activity (normalized)” value was −0.259. Besides, the “Activity across all experiments” value in assay [1] is given as −2.757. Besides, in the assay on gene editing with dCas9, the “dCas9 with SSAP activity” value is listed as −4.457 and the “dCas9 with SSAP activity (normalized)” value is listed as −0.721.

B5: SSAP_266: SEQ ID NO: 435; Bacteroides stercoris (protein, listed as Bacteroides stercoris)
chain: STITTIPQLKSMLANDNVKARFKEILGKKAPGFISSIVAVANSNTLLQKAEPQSIMNAAVVAATLDLPINPNLGFAYVVPYGNQAQFQMGWRGFVQLAMRSGQYKTINVNEIYEGEIKKSNRFTGEYEFGERASDKIVGYMAYFSLINGFEKFLYMSKEDCEKHGRKFSQTYKRGTGIWSTDFDSMAKKTVLKMLLSKFGILSIEMQRAQTFDQAIIKDNLAETDIDEAEVSYNDNPDNEEARRNAMKEALQEAEVVDENTGELFNTETK
As for B5, in the assay on gene editing with Cas9, the “Cas9 with SSAP activity” value was −6.013 and the “Cas9 with SSAP activity (normalized)” value is given as −1.700. In addition, the “Activity across all experiments” value in assay [1] is on record as −5.345. In addition, in the assay on gene editing with dCas9, the “dCas9 with SSAP activity” value is −4.677 and the “dCas9 with SSAP activity (normalized)” value was −0.799.

B6: SSAP_291: SEQ ID NO: 460; Nocardia pseudobrasiliensis (protein, listed as Nocardia pseudobrasiliensis)
chain: SSIANAANASELTPASIVNRYRDDIAAVLPPKLQARIDRWLRLAIGAVNSNADLVDRVRADQGASMMQTLMKCAALGHEPGSGLFHLVPKGPRIEGWEDYKGVLQRIDRSGVYARVVVEVVHANDDYAYDPNLDDRPQHKRAAADRGEPVSAYAYAVYPNGAVTAVAEATPELIAASKAKARGADNASSPWRAPGAPMHRKVAIRQLEKFVATSAEDMREVAVRNAAPDVEDAPADYYQEP
B6: in the assay on gene editing with Cas9, the “Cas9 with SSAP activity” value is −4.531 and the “Cas9 with SSAP activity (normalized)” value is given as −1.341. The “Activity across all experiments” value in assay [1] was −4.494. For the same molecule, in the assay with gene editing with dCas9, the “dCas9 with SSAP activity” value is −4.458 and the “dCas9 with SSAP activity (normalized)” value is recorded as −1.272.

B7: SSAP_103: SEQ ID NO: 272; Zymobacter palmae (protein, listed as Zymobacter palmae)
chain: TNTVQQQAPQQDQLAQQLQQASGNTPQKKPMPSTIQGMLKDDRFKTQIARALPKHVTPERIMRIALTEINKTPKLKECDPIGLFGSIVQSAQLGLELGGALGHAYLVPYGKQAQFIIGYRGMIDLARRSGQMVSLQAHTVHENDEFNFEYGLNENLRHVPARGERGPMIAVYAVAKLVGGGHQIEVMWKEDVDAVRKSSKAGGSGPWRDHYEEMAKKTAIRRLFKYLPVSVEMQRAVSLDEQAEEGVQDNNVFDGDYTVAEH
With B7, in the assay on gene editing with Cas9, the “Cas9 with SSAP activity” value was −0.682 and the “Cas9 with SSAP activity (normalized)” value is given as −0.190. The “Activity across all experiments” value in assay [1] is listed as −2.611. In addition, in the assay with gene editing with dCas9, the “dCas9 with SSAP activity” value is on record as −4.540 and the “dCas9 with SSAP activity (normalized)” value is recorded as −0.705.

B8: SSAP_65: SEQ ID NO: 234 (protein)
chain: TQDLATAIADQQPAQRRTAFDLVESMRGELHKALPEHASIDNFLRLALTELKMNPQLGNCSGESLLGALMTAARVGLEVGGPLGQFYLTPRRLKRDGWAVVPIVGYRGLITLARRAGVGQVNAVVVHEGDTFREGASSERGFFFDWEPAVERGKPVGALAAARLAGGDVQHRYLSLAEVHERRDRGGFKDGSNSPWATDYDAMVRKTALRALVPLLPQSTALSFAVQADEQVQRYDAGDIDIPALDETDTEDTK
For the molecule B8, in the assay with gene editing with Cas9, the “Cas9 with SSAP activity” value is given as 0.198 and the “Cas9 with SSAP activity (normalized)” value turned out to be 0.190. Also, the “Activity across all experiments” value in assay [1] is given as −2.185. In the assay on gene editing with dCas9, the “dCas9 with SSAP activity” value is on record as −4.569 and the “dCas9 with SSAP activity (normalized)” value is reported as −0.746.

B9: SSAP_106: SEQ ID NO: 275; Tepidibacillus fermentans (protein)
chain: ATNEKVKTQLANRANGQAPTPTPEQTIAAYMKKMAPRFAEVLPKHMDIDRMTRIALTTIRTNPKLLEASVPSLLGAIMQAAQLGLEPGLVGHCYLVPFKNGKTGQTEVQFIIGYKGMIDLARRSGNIESIYAHAVYENDTFEYEYGLHPKLVHKPAMTDRGEFIGAYAVAHFKDGGYQFEFMPKEEIEKRRNRSKTANGGPWVTDYEEMAKKTVVRHMWKYLPISIEIQQAAAQDEVIRKDVTSEPEFVDDVIDISTEIEEQSVEVEGEEAQ
modifications: Tepidibacillus fermentans
For B9, in the assay with gene editing with Cas9, the “Cas9 with SSAP activity” value is reported as −5.574 and the “Cas9 with SSAP activity (normalized)” value was −1.211. For the same molecule, the “Activity across all experiments” value in assay [1] is −5.073. In the assay with gene editing with dCas9, the “dCas9 with SSAP activity” value is −4.572 and the “dCas9 with SSAP activity (normalized)” value was −0.829.

B10: SSAP_277: SEQ ID NO: 446; Nocardia terpenica (protein, listed as Nocardia terpenica)
chain: SSIAAAAESAEVTPASIINKYRDDIATVLPPKLRERIDRWIRLAIGAVNSNPELISRVRADQGASMMQALMKCAALGHEPGSGLFHLVPKGSRIEGWEDYKGILQRIDRSGVYARTVIGVVYANDEYSYDQNVDERPRHVRATGDRGEPISSYAYAVYPSGAITTVAEATPEQIASSKSKARGADNAASPWRAPGAPMHRKVAVRLLEKHVATSAEDRREPISRSAANDVVIDATADYYQEP
For the molecule B10, in the assay with gene editing with Cas9, the “Cas9 with SSAP activity” value is given as −1.480 and the “Cas9 with SSAP activity (normalized)” value was −0.437. In assay [1], the “Activity across all experiments” value was −2.958. In the assay with gene editing with dCas9, the “dCas9 with SSAP activity” value was −4.435 and the “dCas9 with SSAP activity (normalized)” value is given as −0.734.

B11: SSAP_72: SEQ ID NO: 241 (protein)
chain: ATNSSLKNQLSKKENVTIGNTMQGLLNNPKMKKRFEEILDKKAPQYMSSILNLYNGDTSLQKCEPMSVLSSSMIAATMDLPVDKNLGYAWIVPYKNKAQFQMGYKGYIQLALRTGQYKHINAIEIHEGELVNWNPLTEELEIDFTKKESDKIIGYAGYFELLNGFKKSTYWTKTQIENHRKKFSKSDYGWNKDFDAMAIKTVIRNMLSKWGILSIEMQNAYTADENIIKDSFIDDSENVSANIEDLVEADYTVNQDSLESKEEFEGTPLE
As to B11, in the assay on gene editing with Cas9, the “Cas9 with SSAP activity” value amounted to 0.397 and the “Cas9 with SSAP activity (normalized)” value was 0.895. Also, the “Activity across all experiments” value in assay [1] is reported as 0.551. In the assay with gene editing with dCas9, the “dCas9 with SSAP activity” value is reported as 0.705 and the “dCas9 with SSAP activity (normalized)” value is recorded as 1.131.

B12: SSAP_130: SEQ ID NO: 299; Peptoanaerobacter stomatis (protein, listed as Peptoanaerobacter stomatis)
chain: GAKELIQKKQENKQISPTSNMNMLLQSMAGAIKKALPAQINSERFQRVALTAFSSNQKLQQCDPISFLAAMMQSAQLGLEPNTPLGQAYLIPYGKQVQFQVGYKGLLELAQRSGQFKSIYSHEVRENDEFEMEYGLNQKLVHKPNLKQERGEVIGYYACYHLTNGGESMFFMTKDEIINFGKSKSKTFNNGPWQTDFDAMAKKTVLKQLLKYAPLSIESQKFMSMDETVKSDISANMDEINNDTVDFEVDIQTGEVINDIVVENTNEDEAN
For the molecule B12, in the assay with gene editing with Cas9, the “Cas9 with SSAP activity” value was −0.778 and the “Cas9 with SSAP activity (normalized)” value is given as −0.800. In assay [1], the “Activity across all experiments” value was −2.714. Besides, in the assay with gene editing with dCas9, the “dCas9 with SSAP activity” value is listed as −4.650 and the “dCas9 with SSAP activity (normalized)” value is listed as −0.774.
